The values that follow come from article PMC7738868.

For the experiment, the target named is fibronectin with extra-domain B (EDB-FN) (human (endogenous in U87MG and U251MG)) (UniProt P02751). The experiment in a line: cellular uptake of rhodamine B-labelled micelles, confocal microscopy; U87MG and U251MG cells incubated 1 h at 37 °C with 100 µg/mL micelles holding 1.0, 2.5 or 5.0 wt% APTEDB-DSPE, washed with PBS, fixed; fluorescence normalised to DAPI (ImageJ); nontargeting PEG2000-DSPE micelles as …; also after EDB-FN siRNA in U87MG (uptake decreased) and over 5 min to 4 h.
UniProt P02751, sequence (P02751 32-2477): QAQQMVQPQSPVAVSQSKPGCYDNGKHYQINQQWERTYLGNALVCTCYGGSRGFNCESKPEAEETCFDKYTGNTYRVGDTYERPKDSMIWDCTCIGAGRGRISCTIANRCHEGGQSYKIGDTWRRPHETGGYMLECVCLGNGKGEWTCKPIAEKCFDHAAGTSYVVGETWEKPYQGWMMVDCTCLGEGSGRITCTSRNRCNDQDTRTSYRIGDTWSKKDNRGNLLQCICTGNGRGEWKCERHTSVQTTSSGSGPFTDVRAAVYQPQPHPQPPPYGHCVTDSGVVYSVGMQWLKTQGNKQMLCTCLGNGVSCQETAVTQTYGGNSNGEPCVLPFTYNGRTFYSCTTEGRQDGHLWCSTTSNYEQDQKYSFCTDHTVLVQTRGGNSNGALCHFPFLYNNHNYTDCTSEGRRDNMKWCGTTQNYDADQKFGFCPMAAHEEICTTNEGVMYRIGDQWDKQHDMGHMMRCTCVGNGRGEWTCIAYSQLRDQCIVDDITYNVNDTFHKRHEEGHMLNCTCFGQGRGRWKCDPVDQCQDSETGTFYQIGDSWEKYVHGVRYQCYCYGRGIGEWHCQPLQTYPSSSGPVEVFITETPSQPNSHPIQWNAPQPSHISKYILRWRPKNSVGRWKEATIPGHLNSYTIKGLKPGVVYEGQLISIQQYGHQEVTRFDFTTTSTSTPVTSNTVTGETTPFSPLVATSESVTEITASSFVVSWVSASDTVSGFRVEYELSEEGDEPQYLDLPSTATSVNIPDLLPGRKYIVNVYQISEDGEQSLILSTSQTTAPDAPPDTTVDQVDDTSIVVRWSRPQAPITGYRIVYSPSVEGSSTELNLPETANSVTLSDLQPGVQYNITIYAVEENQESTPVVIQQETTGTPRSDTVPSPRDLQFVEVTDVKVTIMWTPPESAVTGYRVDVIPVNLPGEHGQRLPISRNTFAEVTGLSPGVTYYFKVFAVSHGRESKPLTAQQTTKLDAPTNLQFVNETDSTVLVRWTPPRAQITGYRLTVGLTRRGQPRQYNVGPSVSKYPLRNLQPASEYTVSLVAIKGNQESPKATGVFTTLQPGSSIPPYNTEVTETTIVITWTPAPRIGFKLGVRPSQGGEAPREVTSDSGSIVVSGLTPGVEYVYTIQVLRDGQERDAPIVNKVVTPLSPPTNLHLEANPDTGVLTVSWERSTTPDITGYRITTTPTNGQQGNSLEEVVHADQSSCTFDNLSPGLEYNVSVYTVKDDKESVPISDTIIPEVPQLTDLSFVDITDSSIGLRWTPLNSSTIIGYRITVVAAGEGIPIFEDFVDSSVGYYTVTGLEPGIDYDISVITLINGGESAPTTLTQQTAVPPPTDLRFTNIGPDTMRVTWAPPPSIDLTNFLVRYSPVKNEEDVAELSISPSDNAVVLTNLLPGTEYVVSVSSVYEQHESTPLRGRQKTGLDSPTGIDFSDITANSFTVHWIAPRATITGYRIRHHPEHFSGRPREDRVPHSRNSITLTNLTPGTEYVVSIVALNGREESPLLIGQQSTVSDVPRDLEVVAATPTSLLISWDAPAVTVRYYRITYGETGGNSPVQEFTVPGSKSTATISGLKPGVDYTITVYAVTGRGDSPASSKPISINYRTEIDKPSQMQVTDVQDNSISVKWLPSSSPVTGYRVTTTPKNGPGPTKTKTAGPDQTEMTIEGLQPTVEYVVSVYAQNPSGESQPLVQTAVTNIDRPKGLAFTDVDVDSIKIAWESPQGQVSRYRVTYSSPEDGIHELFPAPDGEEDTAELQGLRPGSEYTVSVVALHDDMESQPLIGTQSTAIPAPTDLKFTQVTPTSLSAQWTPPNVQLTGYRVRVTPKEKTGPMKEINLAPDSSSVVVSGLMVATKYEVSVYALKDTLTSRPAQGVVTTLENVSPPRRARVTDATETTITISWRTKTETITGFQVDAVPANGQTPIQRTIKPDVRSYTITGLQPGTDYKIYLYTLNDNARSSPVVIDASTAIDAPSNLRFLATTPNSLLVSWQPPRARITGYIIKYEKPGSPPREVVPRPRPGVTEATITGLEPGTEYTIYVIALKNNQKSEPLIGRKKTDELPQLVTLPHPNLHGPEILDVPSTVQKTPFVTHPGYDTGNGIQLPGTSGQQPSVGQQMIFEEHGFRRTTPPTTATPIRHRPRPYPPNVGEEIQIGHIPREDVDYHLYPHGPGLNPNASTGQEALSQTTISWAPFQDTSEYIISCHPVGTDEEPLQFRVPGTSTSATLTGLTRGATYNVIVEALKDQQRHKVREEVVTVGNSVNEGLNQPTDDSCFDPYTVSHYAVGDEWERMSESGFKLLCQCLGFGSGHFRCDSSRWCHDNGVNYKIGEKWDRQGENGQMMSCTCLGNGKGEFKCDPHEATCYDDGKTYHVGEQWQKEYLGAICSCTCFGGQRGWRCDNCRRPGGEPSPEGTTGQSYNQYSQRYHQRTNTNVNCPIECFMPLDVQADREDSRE

“APTEDB-conjugated PEG2000-DSPE (EDB-FN-specific aptamer-like peptide on the surface of a micellar nano-DDS) (designed binder)” had a cellular uptake, fluorescence intensity normalised to DAPI (U87MG cells, 1.0 wt% APTEDB-DSPE) of 166 A.U; a cellular uptake, fluorescence intensity normalised to DAPI (U87MG cells, 2.5 wt% APTEDB-DSPE) of 93.2 A.U; a cellular uptake, fluorescence intensity normalised to DAPI (U87MG cells, 5.0 wt% APTEDB-DSPE) of 56.7 A.U; a cellular uptake, fluorescence intensity normalised to DAPI (U251MG cells, 1.0 wt% APTEDB-DSPE) of 76.4 A.U. In addition, the cellular uptake, fluorescence intensity normalised to DAPI (U251MG cells, 2.5 wt% APTEDB-DSPE) came out at 129 A.U and the cellular uptake, fluorescence intensity normalised to DAPI (U251MG cells, 5.0 wt% APTEDB-DSPE) is 53.4 A.U.
